Experimental findings from patent US20240092924A1 (RIKEN, published 2024) are described below.

In assay [1] the target is T1, epitope region-containing peptide fragment (AFPPEVIGPLFFFPLLYMIFQLGEG-biotin) (C-terminal biotin).
T1 peptide: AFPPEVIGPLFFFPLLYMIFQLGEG
The experiment in a line: SPR (BIAcore 2000, 25 C); antibody captured via anti-mouse IgG on CM5, peptide as analyte; 1:1 Langmuir fit.
Description: (§1) In short, a carboxymethylated dextran biosensor chip (CM5, BIAcore Inc.) was activated by N-ethyl-N′-(3-dimethylaminopropyl)-carbodiimide hydrochloride (EDC) and N-hydroxysuccinimide (NHS) in accordance with the provider's instruction. An anti-mouse IgG antibody was diluted with 10 mM sodium acetate (pH5.2) up to 30 μg/ml. The dilution was injected at a flow rate of 5 to 10 μl/minute such that the reaction unit (RU) of the protein bound became 9,000 to 14,000 RU. […] The diluted antibody was injected at a flow rate of 5 to 10 μl/minute such that the reaction unit (RU) of the protein bound became 9,000 to 14,000 RU. After injection of each of the anti IgG antibodies, 1 M ethanolamine was injected in order to block unreactive groups. […] To the chip, a solution of an epitope region-containing peptide fragment diluted with the running buffers at different concentrations was added at 25° C. at a flow rate of 10 μl/minute for 2 minutes.
(§2) Using simple one-to-one Langmuir binding model (BIAcore Evaluation software version 3.1) by fitting sensor grams of antigen-antibody association and dissociation at the same time, association rate (Ka) and dissociation rate (Kd) were calculated. A Kd/Ka ratio was calculated to obtain an equilibrium dissociation constant (KD).

Assay [2] addresses T2, wild-type human sodium taurocholate cotransporting polypeptide (human NTCP) (human, UniProt Q14973 1-349).
T2 sequence: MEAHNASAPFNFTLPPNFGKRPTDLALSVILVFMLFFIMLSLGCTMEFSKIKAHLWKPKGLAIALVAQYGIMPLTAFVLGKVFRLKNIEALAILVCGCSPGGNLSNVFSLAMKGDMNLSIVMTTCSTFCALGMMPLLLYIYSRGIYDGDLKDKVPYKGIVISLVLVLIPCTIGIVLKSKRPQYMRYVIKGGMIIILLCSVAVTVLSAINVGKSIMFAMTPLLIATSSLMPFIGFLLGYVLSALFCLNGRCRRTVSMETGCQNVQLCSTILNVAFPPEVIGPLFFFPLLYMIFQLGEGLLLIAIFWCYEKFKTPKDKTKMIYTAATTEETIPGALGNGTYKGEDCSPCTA
Put plainly: cell-based or functional assay.

For assay [3], the target named is T1, epitope region-containing peptide …. The experiment in a line: SPR (BIAcore 2000, 25 C); antibody captured via anti-human IgG on CM5, peptide as analyte; 1:1 Langmuir fit.
Description: as §1, §2

Where “and” joins values, the source holds several entries; their conditions need not be identical. Equal entries are not always repeated.

B1: Recombinant N6HB426 mouse IgG2a antibody (antibody)
heavy: QVQLQQSGAELVKPGASVKLSCKASDFTFTEYTIHWIKQMSGQGLEWIGWFYPGSGDIKYSEKFKDKATLTADKSSSTVYMELNRLTSEDSAVYFCARHMRDFRGFYYGRFYFDYWGQGTTLTVSSAKTTAPSVYPLAPVCGGTTGSSVTLGCLVKGYFPEPVTLTWNSGSLSSGVHTFPALLQSGLYTLSSSVTVTSNTWPSQTITCNVAHPASSTKVDKKIEPRGPTIKPCPPCKCPAPNLLGGPSVFIFPPKIKDVLMISLSPIVTCVVVDVSEDDPDVQISWFVNNVEVHTAQTQTHREDYNSTLRVVSALPIQHQDWMSGKEFKCKVNNKDLPAPIERTISKPKGSVRAPQVYVLPPPEEEMTKKQVTLTCMVTDFMPEDIYVEWTNNGKTELNYKNTEPVLDSDGSYFMYSKLRVEKKNWVERNSYSCSVVHEGLHNHHTTKSFSRTPGK
light: EIVLTQSPAIMSASPGEKVTITCRASSSVSSSYLHWYQQKSGVSPKLWIYSTSNLASGVPARFSGSGSGTSYSLTINSVEAEDAATYYCQQYSGYRWTFGGGTTLEIKRADAAPTVSIFPPSSEQLTSGGASVVCFLNNFYPKDINVKWKIDGSERQNGVLNSWTDQDSKDSTYSMSSTLTLTKDEYERHNSYTCEATHKTSTSPIVKSFNRNEC
notes: this is left out as a signal peptide; also called Recombinant mouse IgG2a antibody; N6HB426-20-IgG2a antibody
The term Kd denotes the equilibrium constant for the complex coming apart. High values mean lower affinity, low ones higher affinity. As usually defined, the koff is a measure of how fast the partners let go of each other. Read a low koff as a long-lived complex. In general, kon refers to the rate constant with which the complex forms. As for B1, in assay [1], the Kd was 0.313 nM, the koff was determined as 2.39e-07 s⁻¹ and the kon came to 762 M⁻¹ s⁻¹.

B2: N6HB426-20 antibody (antibody produced by hybridoma) (antibody, V domains shown)
VH: QVQLQQSGAELVKPGASVKLSCKASDFTFTEYTIHWIKQMSGQGLEWIGWFYPGSGDIKYSEKFKDKATLTADKSSSTVYMELNRLTSEDSAVYFCARHMRDFRGFYYGRFYFDYWGQGTTLTVSS
VL: EIVLTQSPAIMSASPGEKVTITCRASSSVSSSYLHWYQQKSGVSPKLWIYSTSNLASGVPARFSGSGSGTSYSLTINSVEAEDAATYYCQQYSGYRWTFGGGTTLEIKRA
notes: Mouse IgG purified from the hybridoma supernatant on Protein G; also called N6HB426-20 monoclonal antibody; N6HB426 antibody
Turning to B2, in assay [2], the “IC50, inhibition of HBV/NL pseudo-virus infection of HepG2-human NTCP cells” value was 1.7 µg/mL; the “IC50, inhibition of infection with pseudo-HBV (NanoLuc)” value is 0.27 µg/mL and 1.8 nM; the “IC50, inhibition of live HBV infection of HepG2/NTCP-myc (HBs antigen level)” value lay within 20 to 30 nM. In assay [1], this molecule yielded a Kd of 0.0388 nM, a koff of 3.19e-08 s⁻¹ and a kon of 821 M⁻¹ s⁻¹.

B3: Recombinant N6HB426 human chimeric IgG4 antibody (antibody)
heavy: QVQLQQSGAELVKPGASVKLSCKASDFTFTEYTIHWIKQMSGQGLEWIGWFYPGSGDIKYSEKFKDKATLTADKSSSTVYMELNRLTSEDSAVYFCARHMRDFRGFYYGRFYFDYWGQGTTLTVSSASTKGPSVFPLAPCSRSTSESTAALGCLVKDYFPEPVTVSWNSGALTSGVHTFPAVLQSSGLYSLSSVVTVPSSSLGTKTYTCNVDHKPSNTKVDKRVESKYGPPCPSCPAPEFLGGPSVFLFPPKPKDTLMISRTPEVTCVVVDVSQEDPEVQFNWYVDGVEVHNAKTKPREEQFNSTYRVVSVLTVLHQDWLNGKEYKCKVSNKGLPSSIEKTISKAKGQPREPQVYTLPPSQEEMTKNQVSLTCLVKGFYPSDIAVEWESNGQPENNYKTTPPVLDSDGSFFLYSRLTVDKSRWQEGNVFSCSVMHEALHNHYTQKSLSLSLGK
light: EIVLTQSPAIMSASPGEKVTITCRASSSVSSSYLHWYQQKSGVSPKLWIYSTSNLASGVPARFSGSGSGTSYSLTINSVEAEDAATYYCQQYSGYRWTFGGGTTLEIKRTVAAPSVFIFPPSDEQLKSGTASVVCLLNNFYPREAKVQWKVDNALQSGNSQESVTEQDSKDSTYSLSSTLTLSKADYEKHKVYACEVTHQGLSSPVTKSFNRGEC
notes: also called Recombinant N6HB426 human chimera IgG4 antibody; human chimeric antibody
As for B3, in assay [2], the “IC50, inhibition of HBV/NL pseudo-virus infection of HepG2-human NTCP cells” value turned out to be 1.7 µg/mL. Moreover, in assay [3], binding was characterised by a dissociation constant (Kd) of 0.129 nM, the koff amounted to 1.73e-07 s⁻¹ and the kon was found to be 1340 M⁻¹ s⁻¹.
